Source: PMC2645956

Molecular target: Paracoccus denitrificans soluble cytochrome c552 fragment, wild-type (unlabeled) (Paracoccus denitrificans) (UniProt P54820)
Sequence of UniProt P54820 (P54820 78-176): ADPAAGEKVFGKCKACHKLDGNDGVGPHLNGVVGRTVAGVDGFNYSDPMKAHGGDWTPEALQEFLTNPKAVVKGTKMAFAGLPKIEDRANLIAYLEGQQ

Brønsted parameter ZAZB of the ionic strength dependence of k12, stopped-flow: -4
Substance: Paracoccus denitrificans soluble cytochrome c1 core fragment, wild-type (domain or fragment)
